Data reported in paper PMC9317851, “Genomic Characterization of Bacillus safensis Isolated from Mine Tailings in Peru and Evaluation of Its Cyanide-Degrading Enzyme CynD” (Applied and Environmental Microbiology, 2022).

What was measured:
[1] = molecular target: the molecule itself; assay: SEC-MALS; pH 8; 100 mM NaCl, 20 mM Tris-HCl; 100-μL injection of 3.47 mg/mL (89.36 μM) CynD; Superdex 200 increase 10/300 GL; size of the oligomers
[2] = molecular target: the molecule itself; assay: SEC-MALS; pH 10; 100 mM NaCl, 20 mM CAPS; 100-μL injection of 3.47 mg/mL (89.36 μM) CynD; Superdex 200 increase 10/300 GL; size of the oligomers
[3] = molecular target: the molecule itself; assay: SEC-MALS; pH 9; 100 mM NaCl, 20 mM Tris-HCl; 100-μL injection of 3.47 mg/mL (89.36 μM) CynD; Superdex 200 increase 10/300 GL; size of the oligomers

B1: Cyanide dihydratase CynD from Bacillus safensis PER-URP-08 (CynD_(PER-URP-08)), recombinant with C-terminal 6xHis tag (enzyme, UniProt P0DXY3 1-330, looked up)
chain: MTSIYPKFRAAAVQAAPVYLNLEATVEKSCELIDEAASNGAKLVAFPEAFLPGYPWFAFIGHPEYTRKFYHELYKNAVEIPSLAIQKISEAAKRNETYVCISCSEKDGGSLYLAQLWFNPNGDLIGKHRKMRASVAERLIWGDGSGSMMPVFQTDIGNLGGLMCWEHQVPLDLMAMNAQNEQVHVASWPGYFDDEISSRYYAIATQTFVLMTSSIYTEEMKEMICLTQEQRDYFETFKSGHTCIYGPDGEPISDMVPAETEGIAYAEIDVERVIDYKYYIDPAGHYSNQSLSMNFNQQPTPVVKQLYHQKNEVFTYEDIQYQHGILEEKV
notes: Cyanide dihydratase CynD of Bacillus safensis PER-URP-08, locus EGI07_08135; monomer 38.5 kDa; The forward primer carries the NdeI site CATATG followed by a further atg, so an added N-terminal Met may be present; also called recombinant CynD; EGI07_08135; source: E. coli BL21(DE3)/pLysS, purified (Ni-NTA, size exclusion chromatography); not shown: 6xHis, C-terminal, kept
- stoichiometry N [1]: 24 to 48 mer
- stoichiometry N [2]: 3 to 5 mer
- stoichiometry N [3]: 4 to 6 mer
